# Assay results: US8697655B2, “Method of selecting polypeptide sequence, and metal oxide or silicon-containing compound binding peptide and use thereof” (Riken, priority 2010, dated 2014)
# B1: MQAYYNYYSNYYGRSYSSDGQLGQFEGNSDSECPLSHDGYCLHDGVCMYI EALDKYACNCVVGYIGERCQYRDLKWWELR (peptide)
# chain: MQAYYNYYSNYYGRSYSSDGQLGQFEGNSDSECPLSHDGYCLHDGVCMYIEALDKYACNCVVGYIGERCQYRDLKWWELR
# notes: chemically synthesized TOP1-EGF composed of 80 amino acids, made by peptide solid phase method
# Experiments:
# [1] = Binding of P-EGFs to TiO2 plate, anti-EGF antibody chemiluminescence detection; conditions: about 2.0 ng, 10 μl in TBS pH 7.5; washed 3 times with TBS-T; anti-human EGF antibody and HRP secondary
# Procedure: Subsequently, in accordance with a scheme in the left in FIG. 4-2, various P-EGF solutions (about 2.0 ng, 10 μl in TBS, pH 7.5) were added on a TiO2 plate (a plate produced by vapor deposition of titanium on the surface of a glass plate with a diameter of 15 mm and a thickness of 0.6 mm (manufactured by Matsunami Glass Ind., Ltd.) (the vapor deposition step was requested to Osaka Vacuum Industrial Co., Ltd.) was used); and a washing operation (TBS-T buffer, pH 7.5) was repeated 3 times. And, after blocking with 0.1% BSA solution, an anti-human EGF antibody was added as a primary antibody. Furthermore, after the washing operation (TBS-T buffer, pH 7.5) was repeated 3 times, an anti-mouse IgG antibody HRP conjugate was added as a secondary antibody. At the end, using a luminescent phenomenon by a reaction between a chemiluminescence reagent and HRP as an index, the presence of protein immobilized on the TiO2 plate was detected. […]
# First, in accordance with a scheme in the left in FIG. 7-1, various P-EGF solutions (about 2.0 ng, 10 μl in TBS, pH 7.5) were added on a TiO2 plate and a washing operation (TBS-T buffer, pH 7.5) was repeated 3 times. […] At the end, using a luminescent phenomenon by a reaction between a chemiluminescence reagent and HRP as an index, the presence of protein immobilized on the TiO2 plate was detected.
# NRK-49F fibroblasts = test: NRK-49F fibroblast proliferation on sTOP1-EGF immobilized TiO2 plate; format: cell-based; conditions: about 5.0 ng immobilized; ca. 5,000 cells seeded; 6 days; 1% FBS DMEM; vs TiO2 plate with EGF alone added
# Procedure: First, in accordance with a scheme in the left in FIG. 7-2, sTOP1-EGF solution (about 5.0 ng, 12 μl in TBS, pH 7.5) was added onto the TiO2 plate and a washing operation (TBS-T buffer, pH 7.5) was then repeated 3 times. And, by blocking with 0.1% BSA solution, a “sTOP1-EGF immobilized TiO2 plate” was prepared. And then, ca. 5,000 NRK-49F fibroblasts were seeded on the sTOP1-EGF immobilized TiO2 plate, cultured for 6 days (1% FBS containing DMEM medium was used), and subjected to microscopy (cells were not stained).
molecule,measurement,setting,value
B1,TiO2 plate binding (luminescent phenomenon of protein immobilized on the plate),[1],the luminescent phenomenon could be confirmed
same,Proliferation of NRK-49F fibroblasts on the immobilized TiO2 plate (microscopy),NRK-49F fibroblasts,markedly proliferated
